pKd: −log10 of the molar value.
Experiments:
Assay in all cases: IEDB peptide-MHC binding, purified MHC/direct/fluorescence; filed as Kd, often an IC50 or EC50 that approximates it; ≥ and ≤ were set here for values at or beyond the usual limits of such assays
Conditions in all cases: source organism: Rickettsia bellii OSU 85-389
HLA-A*02:01 = molecular target: HLA-A*02:01
HLA-A*02:11 = molecular target: HLA-A*02:11
HLA-A*02:19 = molecular target: HLA-A*02:19
HLA-A*68:02 = molecular target: HLA-A*68:02
HLA-B*15:01 = molecular target: HLA-B*15:01
HLA-B*27:03 = molecular target: HLA-B*27:03
HLA-B*46:01 = molecular target: HLA-B*46:01
HLA-B*51:01 = molecular target: HLA-B*51:01
HLA-B*57:01 = molecular target: HLA-B*57:01

EDFEIFYNL
pKd (HLA-A*02:01): ≤ 4.70 | pKd (HLA-A*02:11): ≤ 4.70 | pKd (HLA-A*02:19): ≤ 4.70 | pKd (HLA-A*68:02): 6.84 | pKd (HLA-B*15:01): ≤ 4.70 | pKd (HLA-B*27:03): ≤ 4.70 | pKd (HLA-B*46:01): ≤ 4.70 | pKd (HLA-B*51:01): ≤ 4.70 | pKd (HLA-B*57:01): ≤ 4.70
